Measured values: the supplement of paper PMC9170038

System: MS2 coat protein
Assay: apparent KD of MS2 coat protein; higher = weaker reporter binding
Conditions: Eterna round: R107
How it was run: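 Titrations with SNAP-549-labelled MS2 coat protein ran in twofold steps from 0.7 or 1.5 nM to 3 µM, each step taking 0.8–1.5 h at the start and 10–20 min toward the end. The targets were designed RNA switches transcribed on-chip from Illumina sequencing clusters, held in 100 mM Tris-HCl pH 7.5, 80 mM KCl, 4 mM MgCl2, without or with constant ligand. Apparent KD was taken per design as the median of normalised cluster binding-curve fits.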

[1] = input ligand: theophylline 20 uM
[2] = input ligand: theophylline 2 mM
[3] = input ligand: tryptophan 2.4 mM

| Sequence | apparent KD of MS2 coat protein (input ligand: arginine 13.2 mM) | apparent KD of MS2 coat protein (input ligand: none) | apparent KD of MS2 coat protein [1] | apparent KD of MS2 coat protein [2] | apparent KD of MS2 coat protein [3] |
| --- | --- | --- | --- | --- | --- |
| AGCACAUGAGGAUCACCCAUGUGUGGGUACCGAGGACCGGUACGGCCGCCACUCGCAGGACAUGAGGAUCACCCAUGUGCCGCCG [SSTA DOUBLE!!! :-D #7] | 19.7 nM | 30.5 nM | 33.2 nM | 41.2 nM | 43.4 nM |
| CUACAUUUGUAGAAACCGGUCACCAUUAUUCGAGGACCGGUACGGCCGCCACUCGUAUCAUGUGAUACAUGAGGAUCACCCAUGU [Tryptophan A 9] | 27.3 nM |  | 33.7 nM | 45.5 nM |  |
| UCGCUCUGGGUGGGAUCCGGAGAUGUGGAAGGAGCGCUGGUAACAGCAGGUAGGUCGCCAACGGACAUGAGGAUCACCCAUGUAC [Same State - Arginine A (Freestyle 17)] | 25.2 nM | 37.3 nM | 40 nM | 44.2 nM | 26.7 nM |
| UAUAUAUAUCACUAACUGUUGUGGACGUCUCGAGGACCGGUACGGCCGCCACUCGGGCGGCCUCACAUGAGGAUCACCCAUGUCC [XTryp A #4] | 92.9 nM |  | 192 nM | 149 nM |  |
| GAUAGAACAAAAGUUUUAUCAGUGGGUGAACGAGGACCGGUACGGCCGCCACUCGGACAUGAGGAUCACCCAUGUCCAUGUGAAA [AstrosExyTryA#17] | 12.6 nM | 18.1 nM | 17.1 nM | 19.5 nM | 43.9 nM |
| AGUAACAUGAGGAUCACCCAUGUAUGAGAAGGAGCGUGUUUUAACACAGGUAGGUCGCUCAAUAUUAAUUUAUUAGAUACAUUUA [JR_SSArginiA_Sub006] | 18.9 nM | 27 nM | 45.1 nM | 36.8 nM | 34.3 nM |
| UCGCGAUAGAGAAGGAGCGUCAACACCACAGAACAUGAGGAUCACCCAUGUGUUACUUUUAGACAGGUAGGUCGCUCUAGCGCUU [JR_Nu_ExcArginiB_Sub028] | 14 nM | 12.2 nM | 18.3 nM | 16.4 nM | 13.3 nM |
| AUAACAUGAGGAUCACCCAUGUAACCUGAAGGAGCGGACGAAAGUCCAGGUAGGUCGCAGGACUCCUUCAACAUGGGAGAGGGAG [SSArg-A #27 NuPack the Brourd] | 120 nM | 99 nM | 131 nM | 152 nM | 124 nM |
| UGUUUCGCGGGCGAUACCAGCUUGAUCGUACUGGCCUGGUACAUGAGGAUCACCCAUGUAAGCCCUUGGCAGCGCGCGCGAGACG [#1 Exclusion - Theophylline B Attempt #3 (HarryS)] | 19.6 nM | 13.5 nM | 18.9 nM | 32.4 nM | 15.7 nM |
| GGUGAUCCGUGCUGCCGGAUCAUCGGUGAUACCAGCAUCGAAAGAUGCCCUUGGCAGCACCAACAUGAGGAUCACCCAUGUAAUA [(M)'-(T)'-(M)''-(T1)-(T2)-(M1)-(M2)_Design5] | 46 nM |  | 231 nM |  | 163 nM |
| UAUGAGCGCACGGCCGCCACUGUCUUCAUCUGUUUGUCUACAUGAGGAUCACCCAUGUUGGUUUACAGGACCGGGUGCAACUAUG [SSTryp B #10] | 26.9 nM |  | 38.1 nM | 33.8 nM |  |
| UUAUAAGUACCGGUCCUCAGAUCCUCAUGACGAGGACCGGUACGGCCGCCACUCGAAACAUGAGGAUCACCCAUGUAAUAAUACU [Brourdmod08] | 21 nM |  | 34.5 nM | 33.1 nM |  |
| GGGUACAUCGCGGCCGCCACUCAUGUAAAUACCUGAGGAUCACCCUGGUCGAUGGAGACAUCGAAGAGGACCGGGUGAUGUACCG | 91.2 nM | 252 nM | 371 nM | 528 nM | 44.6 nM |
| CAUAUAUAAGCGGCCGCCACUUACUCAUGAGGUAACAACAUGAGGAUCACCCAUGUUUGAGGAUCAAGGACCGGGCUUAUAUAUG [AstrosSSTryB#5] | 27 nM |  | 27.3 nM | 28.5 nM |  |
